Source: patent US20210101970A1 (Pfizer, published 2021)
One block for each binder: values may come before it.

What was measured:
human CXCR5 [1] = target: T1, human CXCR5 (human, UniProt P32302 1-372); experiment: flow cytometry, B cells from human PBMCs (FIG. 5); comparator 11A7
T1 construct: also called hCXCR5; C-X-C chemokine receptor type 5
T1 sequence: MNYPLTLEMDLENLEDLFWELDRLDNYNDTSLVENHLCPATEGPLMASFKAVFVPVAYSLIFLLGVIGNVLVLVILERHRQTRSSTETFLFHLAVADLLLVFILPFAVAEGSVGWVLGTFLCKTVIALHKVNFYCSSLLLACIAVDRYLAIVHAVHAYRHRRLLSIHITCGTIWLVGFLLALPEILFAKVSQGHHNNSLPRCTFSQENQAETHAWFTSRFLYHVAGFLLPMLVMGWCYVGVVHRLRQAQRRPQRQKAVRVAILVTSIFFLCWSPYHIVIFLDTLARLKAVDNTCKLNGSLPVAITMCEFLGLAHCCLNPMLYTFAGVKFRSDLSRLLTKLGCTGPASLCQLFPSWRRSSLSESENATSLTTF

human CXCR5 [2] = target: T1, human CXCR5; experiment: cell-based or functional assay
human CXCR5 [3] = target: T1, human CXCR5; experiment: flow cytometry, human PBMC B cells
Description: (§1) The apparent affinity for cell surface CXCR5 of chimeric and humanized CXCR5 fucosylated and afucosylated antibodies was assessed. More specifically, to determine the apparent affinity of chimeric and humanized CXCR5 antibodies to CXCR5-expressing cells, cell binding experiments were performed on human and cynomolgus monkey peripheral blood mononuclear cells (PBMCs) and human tonsillar mononuclear cells (TMCs). The apparent affinity of CXCR5 mab binding to CXCR5+ cells (B cells, bona fide Tfh cells, and circulating Tfh-like cells) was calculated as the EC50 of equilibrium binding titration curves in which the geometric mean fluorescence intensity (gMFI) of the antigen binding population was quantified by flow cytometry.
(§2) Following isolation, PBMCs were plated at a density of 1.0×10⁵ cells per well and CD4+ TMCs were plated at a density of 2.0×10⁵ cells per well in isolation buffer (PBS containing 1% FBS and 1 mM EDTA) in 96 well U-bottom plates. The plates were then centrifuged at 1500 rpm for 5 minutes at room temperature. PBMCs and CD4+ TMCs were resuspended in Fluorescence-activated cell sorting (FACS) buffer (PBS containing 1% FBS) containing human crystallized fragment Fc block (2 μL per well; Biolegend) and 4-fold serial dilutions of the antibodies (11-point dilution series, beginning at 5000 ng/mL for PBMCs and 312.5 ng/mL for CD4+ TMCs) and incubated on ice for 2 hours. PBMCs and CD4+ TMCs were then washed with FACS buffer 3 times and resuspended in 50-100 μL of FACs buffer containing fluorescent-conjugated antibodies for staining lymphocyte subsets and a fluorescent-conjugated secondary antibody against human Ig to detect CXCR5 monoclonal antibodies (mAbs). After incubation for 30 minutes at 4° C., PBMCs and CD4+ TMCs were washed with FACS buffer 2 times and resuspended in 125 μL of 0.5% paraformaldehyde (PFA) in PBS. Plates were stored at 4° C. until analysis by flow cytometry (BD LSRFortessa™ Cell Analyzer, BD Biosciences, Franklin Lakes, N.J.).
(§3) The cell binding titration curves were generated by plotting the gMFI of the antigen binding population against the log of CXCR5 antibody concentration. EC₅₀ values were determined using GraphPad Prism® (version 6.0, GraphPad Software, Inc, San Diego, Calif.) nonlinear-regression curve fits and a sigmoidal log of agonist dose-response model, according to the following equation

human CXCR5 [4] = target: T1, human CXCR5; experiment: cell-based or functional assay; remark: listed apart in the source
XC280 = target: T2, XC280 (human, UniProt P32302 2-372); experiment: flow cytometry on HEK-293T cells transiently expressing the FLAG-tagged mutein; ratio of gMFI of the antibody to gMFI of anti-FLAG PE
T2 construct: also called hCXCR5 W19K
T2 sequence: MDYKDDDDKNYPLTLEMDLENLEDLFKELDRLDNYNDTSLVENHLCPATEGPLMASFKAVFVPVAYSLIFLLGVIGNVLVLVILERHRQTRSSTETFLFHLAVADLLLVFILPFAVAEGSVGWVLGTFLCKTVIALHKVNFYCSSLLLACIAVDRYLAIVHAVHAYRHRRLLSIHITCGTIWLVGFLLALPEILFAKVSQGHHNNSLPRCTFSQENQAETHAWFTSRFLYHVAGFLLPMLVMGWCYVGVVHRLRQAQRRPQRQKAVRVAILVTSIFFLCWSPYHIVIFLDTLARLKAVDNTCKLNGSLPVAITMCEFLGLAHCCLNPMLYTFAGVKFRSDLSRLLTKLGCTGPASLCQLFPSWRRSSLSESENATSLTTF
Description: The cells were analyzed by flow cytometry using an Accuri (BD Biosciences Franklin Lakes, N.J.). The geometric mean fluorescence intensity (gMFI) was determined and the ratio for the gMFI of each CXCR5 antibody and anti-flag was calculated.

mouse CXCR5 [5] = target: T3, mouse CXCR5 (mouse, UniProt Q04683 1-374); experiment: flow cytometry on cells expressing mouse CXCR5
T3 construct: also called mCXCR5
T3 sequence: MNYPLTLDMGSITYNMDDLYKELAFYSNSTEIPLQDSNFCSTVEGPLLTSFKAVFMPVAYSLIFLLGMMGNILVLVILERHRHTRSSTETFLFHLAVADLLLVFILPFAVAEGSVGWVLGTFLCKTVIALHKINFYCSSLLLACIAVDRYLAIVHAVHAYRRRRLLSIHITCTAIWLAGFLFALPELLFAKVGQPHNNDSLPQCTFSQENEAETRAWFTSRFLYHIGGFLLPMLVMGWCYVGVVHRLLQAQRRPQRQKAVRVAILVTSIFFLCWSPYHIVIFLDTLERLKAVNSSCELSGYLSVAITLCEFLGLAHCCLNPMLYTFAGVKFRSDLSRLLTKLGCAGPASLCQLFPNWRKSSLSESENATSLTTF

cynomolgus monkey CXCR5 [6] = target: T4, cynomolgus monkey CXCR5 (cynomolgus monkey, UniProt P32302 1-372 (human entry)); experiment: flow cytometry, cynomolgus PBMC B cells
T4 construct: also called cynoCXCR5; NHP CXCR5
T4 chain: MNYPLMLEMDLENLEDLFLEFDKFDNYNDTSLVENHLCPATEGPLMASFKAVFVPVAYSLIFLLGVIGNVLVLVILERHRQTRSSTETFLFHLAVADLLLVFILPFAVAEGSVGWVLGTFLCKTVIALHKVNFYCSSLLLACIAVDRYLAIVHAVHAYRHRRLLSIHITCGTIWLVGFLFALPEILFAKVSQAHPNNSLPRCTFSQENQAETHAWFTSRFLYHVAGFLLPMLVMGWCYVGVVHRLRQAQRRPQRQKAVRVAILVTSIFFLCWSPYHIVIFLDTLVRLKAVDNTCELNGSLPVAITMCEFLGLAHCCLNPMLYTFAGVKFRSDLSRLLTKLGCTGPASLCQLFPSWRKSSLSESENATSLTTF
Description: as §1, §2, §3

human CXCR5 [7] = target: T1, human CXCR5; experiment: flow cytometry, human tonsil Tfh cells
Description: Following centrifugation, red blood cell lysis was performed on the pellet using an ammonium chloride lysis buffer. Platelets were removed using a low speed centrifugation (200×g) for 10 minutes in Phosphate-Buffered Saline (PBS)/2% FBS/2 mM Ethylenediaminetetraacetic acid (EDTA). CD4+ T cells were purified out of the TMC mixture using an EasySep™ Human CD4+ T Cell Enrichment Kit, according to the manufacturer's instructions ([…] Technologies, Vancouver, BC, Canada).
as §2, §3

cynomolgus monkey CXCR5 [8] = target: T4, cynomolgus monkey CXCR5; experiment: flow cytometry, cynomolgus PBMC Tfh-like cells
Description: as §1
(§4) Following isolation, PBMCs were plated at a density of 1.0×10⁵ cells per well and CD4+ TMCs were plated at a density of 2.0×10⁵ cells per well in isolation buffer (PBS containing 1% FBS and 1 mM EDTA) in 96 well U-bottom plates. The plates were then centrifuged at 1500 rpm for 5 minutes at room temperature. PBMCs and CD4+ TMCs were resuspended in Fluorescence-activated cell sorting (FACS) buffer (PBS containing 1% FBS) containing human crystallized fragment Fc block (2 μL per well; Biolegend) and 4-fold serial dilutions of the antibodies (11-point dilution series, beginning at 5000 ng/mL for PBMCs and 312.5 ng/mL for CD4+ TMCs) and incubated on ice for 2 hours. […]

human CXCR5 [9] = target: T1, human CXCR5; experiment: flow cytometry, human PBMC Tfh-like cells
Description: as §1, §4

human CXCR5 [10] = target: T1, human CXCR5; experiment: flow cytometry, human PBMC B cells; remark: listed apart in the source
human CXCR5 [11] = target: T1, human CXCR5; experiment: flow cytometry, B cells from human PBMCs (FIG. 5); fucosylated
cynomolgus monkey CXCR5 [12] = target: T4, cynomolgus monkey CXCR5; experiment: cell-based or functional assay
human CXCR5 [13] = target: T1, human CXCR5; experiment: flow cytometry on Raji cells, gMFI titration
Description: The apparent affinity of antibody binding to Raji cells was calculated as the EC₅₀ of equilibrium binding titration curves in which the geometric mean fluorescence intensity (gMFI) of the antigen binding population was quantified by flow cytometry and the results are shown in Table 2.

human CXCR5 [14] = target: T1, human CXCR5; experiment: cell-based or functional assay; remark: listed apart in the source
mouse CXCR5 [15] = target: T3, mouse CXCR5; experiment: FACS on cells expressing the CXCR5 construct
XC254 = target: T5, XC254; experiment: FACS on cells expressing the CXCR5 construct
T5 construct: whole, on cells; also called hCXCR5-mL2-mL3

XC252 = target: T6, XC252; experiment: FACS on cells expressing the CXCR5 construct
T6 construct: whole, on cells; also called hCXCR5-mL2

XC251 = target: T7, XC251; experiment: FACS on cells expressing the CXCR5 construct
T7 construct: whole, on cells; also called hCXCR5-mL3

XC253 = target: T8, XC253; experiment: FACS on cells expressing the CXCR5 construct
T8 construct: whole, on cells; also called hCXCR5-mN

XC256 = target: T9, XC256; experiment: FACS on cells expressing the CXCR5 construct
T9 construct: whole, on cells; also called hCXCR5-mN-mL2

human CXCR5 [16] = target: T1, human CXCR5; experiment: FACS on cells expressing the CXCR5 construct
XC255 = target: T10, XC255; experiment: FACS on cells expressing the CXCR5 construct
T10 construct: whole, on cells; also called hCXCR5-mN-mL3

EC50 (human CXCR5 [1]): 0.926 nM
ADCC Activity Average EC50, Human B Cells (human CXCR5 [2]): 0.00435 nM
EC50 (human CXCR5 [3]): 0.564 nM
% Inhibition CXCL13 (human CXCR5 [4]): 106%
EC50, stimulation of CXCL13-inhibited cAMP production (human CXCR5 [4]): 1.4 nM
binding result (mouse CXCR5 [5]): no binding
B1: 11A7 (reference antibody) (antibody, human IgG1, lambda, V domains shown)
VH: EVQLVESGGGLVQPGGSLRLSCAASGFTVSSNYMSWVRQAPGKGLEWVSVIYSGGSTYYADSVKGRFTISRHNSKNTLYLQMNSLRAEDTAVYYCARGYVVWGQGTLVTVSS
VL: QPVLTQPPSVSKDLRQTATLTCTGNSNNVGNQGATWLQQHQGHPPKLLSYKNNNRPSGISERFSASRSGNTASLTITGLQPEDEADYYCSAWDSSLSAWVFGGGTQLTVLG
notes: fucosylated
binding result (XC280): no binding (tested: 1 or 3 µg/ml (not on the sheet))

EC50 (cynomolgus monkey CXCR5 [6]): 0.00413 nM
EC50 (human CXCR5 [7]): 0.00825 nM
EC50 (cynomolgus monkey CXCR5 [8]): 0.00565 nM
EC50 (human CXCR5 [9]): 0.00592 nM
fold greater affinity than 2C9 (human CXCR5 [10]): ≥ 10 fold
fold greater affinity than 11A7 (human CXCR5 [10]): ≥ 100 fold
fold higher affinity than 2C9 (human CXCR5 [10]): ~10 fold
fold higher affinity than 11A7 (human CXCR5 [10]): ~100 fold
EC50 (human CXCR5 [11]): 0.00963 nM
ADCC Activity Average EC50, NHP B Cells (cynomolgus monkey CXCR5 [12]): 0.0391 nM
ADCC Activity Average EC50, Human B Cells (human CXCR5 [2]): 0.254 nM
ADCC Activity Average EC50, Human Tfh Cells (human CXCR5 [2]): 0.00077 nM
ADCC Activity Average EC50, Human Tfh-like Cells (human CXCR5 [2]): 0.00798 nM
EC50 (human CXCR5 [3]): 0.00708 nM
% Inhibition CXCL13 (human CXCR5 [4]): 121%
EC50, stimulation of CXCL13-inhibited cAMP production (human CXCR5 [4]): 0.753 nM
B2: Humanized 11G2 154/155 (antibody, human IgG1, kappa, V domains shown)
VH: EVQLVESGGGLVQPGGSLRLSCAASGFTFTDFYMSWVRQAPGKGLEWVGFIRNKANGYTTEYSASVKGRFTISRDNAKNSLYLQMNSLRAEDTAVYYCARVYGSTLHYWGQGTLVTVSS
VL: DIQMTQSPSSLSASVGDRVTITCRASESVEYHGTSLMHWYQQKPGKAPKLLIYAASNVESGVPSRFSGSGSGTDFTLTISSLQPEDFATYYCQQSRKVPWTFGQGTKVEIKR
notes: fucosylated human IgG1/kappa; also called h11G2 VL XC154/VH XC155

EC50 (human CXCR5 [13]): 0.65 nM
Ca2+ flux IC50 (human CXCR5 [14]): 11.4 nM
GMFI (mouse CXCR5 [15]): 958 GMFI
GMFI (XC254): 16900 GMFI
GMFI (XC252): 27000 GMFI
GMFI (XC251): 19900 GMFI
GMFI (XC253): 1260 GMFI
GMFI (XC256): 1380 GMFI
GMFI (human CXCR5 [16]): 150000 GMFI
GMFI (XC255): 1340 GMFI
ADCC Activity Average EC50, Human B Cells (human CXCR5 [2]): 2.59 nM
% Inhibition CXCL13 (human CXCR5 [4]): 102%
EC50, stimulation of CXCL13-inhibited cAMP production (human CXCR5 [4]): 1.1 nM
binding result (mouse CXCR5 [5]): no binding
B3: 16D7 (reference antibody) (antibody, human IgG1, kappa, V domains shown)
VH: QVQLKESGPGLVAPSESLSITCTVSGFSLIDYGVNWIRQPPGKGLEWLGVIWGDGTTYYNPSLKSRLSISKDNSKSQVFLKVTSLTTDDTAMYYCARIVYWGQGTLVTVSA
VL: DIVMTQAAPSVAVTPGASVSISCRSSKSLLHSSGKTYLYWFLQRPGQSPQLLIYRLSSLASGVPDRFSGSGSGTAFTLRISRVEAEDVGVYYCMQHLEYPYTFGGGTKLEIKR
notes: fucosylated; also called S16D7
binding result (XC280): no binding (tested: 1 or 3 µg/ml (not on the sheet))
